The values that follow come from patent publication US11266716B2, “Use of dermcidin in sterile inflammatory conditions” (THE FEINSTEIN INSTITUTES FOR MEDICAL RESEARCH, priority 2015, dated 2022).

In one test the test system is various types of cells. To be noted: cited from earlier work.
The test system of another test is Male C57BL/6 mice. Briefly: Hepatic ischemia/reperfusion (I/R) injury in mice. It counts as in vivo. The method, then: FIG. 4A-4B. Intravenous administration of dermcidin conferred protection against hepatic ischemia/reperfusion (I/R) injury. Male C57BL/6 mice (20-25 g) were subjected to hepatic ischemia/reperfusion by temporal clamping the hepatic artery and portal vein for 60 minutes, which typically produced ischemia in 70% of the liver. At the beginning of the reperfusion, 0.2 ml saline or recombinant dermcidin solution (“DCD”, 5.0 mg/kg BW) was injected via the internal jugular vein. At 24 h after the onset of ischemia, animals were euthanized to harvest blood to measure serum levels of hepatic injury markers such as alanine aminotransferase (ALT) (4A) and aspartate aminotransferase (AST) (4B) using commercial kits.
FIG. 5. DCD monomer protects against hepatic ischemic/reperfusion injury. Representative liver histology at 24 h post the onset of reperfusion. Note a normal liver parenchyma architecture in the “Sham” control, but hepatic necrosis in the “I/R”. […] Liver injury was also assessed histologically using the Suzuki liver injury scores, and expressed as means±S.E. of 3-6 animals per group. *P<0.05 vs. sham; #P<0.05 vs. “I/R” group.
FIG. 6A-6B. DCD protects against hepatic ischemic/reperfusion-induced lung injury. 6A). Histopathological characteristics of lung injury after hepatic I/R. Representative H&E histological images of lung sections at 24 h post the onset of reperfusion. Note a normal lung architecture in the “Sham” control, and extensive lung injury and neutrophil infiltration in the “I/R” group. […] 6B). Histological Scores. Lung injury was assessed histologically using American Thoracic Society Documents' lung injury scores, and expressed as means±S.E. of 3-6 animals per group. *P<0.05 vs. sham; #P<0.05 vs. “I/R” group.
In further experiments, intravenous administration of dermcidin conferred protection against hepatic ischemia/reperfusion (I/R) injury. Male C57BL/6 mice (20-25 g) were subjected to hepatic ischemia/reperfusion by temporal clamping the hepatic artery and portal vein for 60 minutes, which typically produced ischemia in 70% of the liver. […]
A representative liver histology at 24 h post the onset of reperfusion is shown, note a normal liver parenchyma architecture in the “Sham” control, and hepatic necrosis in the “I/R”. […] Liver injury was also assessed histologically using the Suzuki liver injury scores, and expressed as means±S.E. of 3-6 animals per group. *P<0.05 vs. sham; #P<0.05 vs. “I/R” group.
DCD also protects against hepatic ischemic/reperfusion-induced lung injury. […] Lung injury was assessed histologically using American Thoracic Society Documents' lung injury scores, and expressed as means±S.E. of 3-6 animals per group. *P<0.05 vs. sham; #P<0.05 vs. “I/R” group.

The subject of test [1] is Murine macrophage-like RAW 264.7. Briefly: LPS- or CIRP-induced NO release by murine macrophages (Griess reaction). It counts as cell-based. As to conditions: 16 h. The method, then:
FIG. 2. Dermcidin dose-dependently attenuated LPS- and CIRP-induced NO release by murine macrophages. Murine macrophages were stimulated with LPS or CIRP alone or in the presence of recombinant dermcidin (DCD) for 16 hours, and extracellular levels of nitric oxide (NO) were determined by the Griess Reagent. *, P<0.05 versus “−control”; #, P<0.05 versus “+LPS”, or “+CIRP” alone.
Cell culture: Murine macrophage-like RAW 264.7 were obtained from the American Type Culture Collection (ATCC, Rockville, Md.), and were cultured in DMEM supplemented with 1% penicillin/streptomycin and 10% FBS. Human blood was purchased from the Long Island Blood Bank (Melville, N.Y.), and human peripheral blood mononuclear cells (HuPBMCs) were isolated by density gradient centrifugation through Ficoll (Ficoll-Paque PLUS, Pharmacia, Piscataway, N.J.) as previously described (20-22). […] Subsequently, the cell-conditioned culture media were analyzed respectively for levels of nitric oxide, and other cytokines by the Griess Reaction and Cytokine Antibodies Arrays as previously described (19, 23).
Nitric oxide (NO) assay: The levels of NO in the culture medium were determined indirectly by measuring the NO^2− production with a colorimetric assay based on the Griess reaction (21, 24). NO^2− concentrations were determined with reference to a standard curve generated with sodium nitrite at various dilutions.
On the technique in general: Griess reagent forms a coloured azo dye with nitrite.

In test [2] the test system is human peripheral blood mononuclear cells (HuPBMCs). In words: LPS- or HMGB1-induced cytokine/chemokine release by human monocytes (Cytokine Antibody Array). In kind it is cell-based. The method, then:
FIG. 3A-3B. Dermcidin modulated LPS- and HMGB1-induced chemokine release by human monocytes. Human peripheral mononuclear cells (huPBMCs) were stimulated with LPS (0.8 μg/ml) or HMGB1 (4.0 μg/ml) alone, or in the presence of DCD (1.0 μg/ml) for 16 hours, and extracellular levels of cytokines and chemokines were determined by Cytokine Antibody Arrays (Panel A, B). A, Representative cytokine antibody arrays. The name of the cytokines and positive controls (“Pos”, or “+Ctrl”) were labeled in the table below. B, Relative cytokine levels. The relative cytokine levels were estimated by measuring the intensity of corresponding signal, and expressed as mean±SEM [% of positive controls (“+Ctrl”) of respective arrays] of two independent experiments. *, P<0.05 versus “untreated”; #, P<0.05 versus “+LPS” or “+HMGB1” alone.
Cell culture: Murine macrophage-like RAW 264.7 were obtained from the American Type Culture Collection (ATCC, Rockville, Md.), and were cultured in DMEM supplemented with 1% penicillin/streptomycin and 10% FBS. Human blood was purchased from the Long Island Blood Bank (Melville, N.Y.), and human peripheral blood mononuclear cells (HuPBMCs) were isolated by density gradient centrifugation through Ficoll (Ficoll-Paque PLUS, Pharmacia, Piscataway, N.J.) as previously described (20-22). Adherent macrophages or HuPBMCs were gently washed with, and cultured in, DMEM before stimulation with LPS (0.4 μg/ml), CIRP (2.0 μg/ml), or HMGB1 (1.0 μg/ml) in the absence or presence of recombinant dermcidin for 16 h. Subsequently, the cell-conditioned culture media were analyzed respectively for levels of nitric oxide, and other cytokines by the Griess Reaction and Cytokine Antibodies Arrays as previously described (19, 23).
Cytokine antibody array: Human Cytokine Antibody Array C3 (Cat. No. AAH-CYT-3-4, RayBiotech Inc., Norcross, Ga., USA), which respectively detect 42 cytokines on one membrane, were used to determine cytokine levels in human monocyte-conditioned culture medium as previously described (21, 24). Briefly, the membranes were sequentially incubated with equal volumes of cell culture medium (200 al), primary biotin-conjugated antibodies, and horseradish peroxidase-conjugated streptavidin. After exposing to X-ray film, the relative signal intensity was determined using the Scion Image software.

Setting [3] is: 5.0 mg/kg BW via internal jugular vein at beginning of reperfusion, 24 h after onset of ischemia.
[4] abbreviates: 24 h post the onset of reperfusion.
Where [5] appears, read: human monocyte cultures, HMGB1, DCD 1.0 μg/ml, 16 h.
The mark [6] stands for this setting: human monocyte cultures, LPS, DCD 1.0 μg/ml, 16 h.

With “N-terminal peptide (residue 20-62): N-terminal proteolytic peptide of dermcidin, residue 20-62 (YDPEAASAPGSGNPCHEASAAQKENAGEDPGLARQAPKPRKQR; UniProt P81605 20-62, looked up, fragment)”, the “protection of cells against oxidative or hypoxic stresses” value with various types of cells is “protect various types of cells against oxidative or hypoxic stresses”.

B1: dermcidin: Recombinant human dermcidin, mature form residues 20-110 without signal peptide, N-terminal histidine tag, expressed in E. coli (protein, listed as Homo sapiens)
chain: YDPEAASAPGSGNPCHEASAAQKENAGEDPGLARQAPKPRKQRSSLLEKGLDGAKKAVGGLGKLGKDAVEDLESVGKGAVHDVKDVLDSVL
Consider B1, for which, in the test on Male C57BL/6 mice (setting [3]), the “serum alanine aminotransferase (ALT), hepatic injury marker” value was “significant protection” and the “serum aspartate aminotransferase (AST), hepatic injury marker” value is listed as “significant protection”. For the same molecule, the “lung histology (H&E) after hepatic I/R” value in the test on Male C57BL/6 mice (setting [4]) is “well-preserved tissue structure”. For the same molecule, in test [1] (macrophages stimulated with CIRP), the “CIRP-induced NO release” value was “dose-dependently and significantly attenuated”. In test [1] (macrophages stimulated with LPS), the “LPS-induced NO release” value was “dose-dependently and significantly attenuated”. Further, in test [2] (dimers formed in the absence of reducing agents, in vitro, data not shown), the “immune modulating properties on dimer formation” value is “remained unaltered”. In addition, the TNF secretion result in test [2] (human monocyte cultures) is “slightly stimulated”. In addition, in test [2] (setting [5]), the “HMGB1-induced release of GRO-α” value is on record as “effectively inhibited” and the “HMGB1-induced release of MCP-3” value is reported as “effectively inhibited”. In test [2] (setting [6]), the “LPS-induced release of GRO-α” value is “effectively inhibited” and the “LPS-induced release of MCP-3” value was “effectively inhibited”.

B2: DCD monomer: Recombinant dermcidin 12-14 kDa monomer, seen in the presence of reducing agent DTT (protein, UniProt P81605 20-110, looked up)
Dermcidin: YDPEAASAPGSGNPCHEASAAQKENAGEDPGLARQAPKPRKQRSSLLEKGLDGAKKAVGGLGKLGKDAVEDLESVGKGAVHDVKDVLDSVL
Consider B2, for which the “liver histology after hepatic I/R” value in the test with Male C57BL/6 mice (setting [4]) is “well-preserved tissue structure”.
